Laboratory results: US20190345234A1 (CENTRE HOSPITALIER UNIVERSITAIRE VAUDOIS, published 2019)

Target: Fc-gamma receptor I (CD64) (UniProt P12314 16-374)
Experiment: cell-based or functional assay

Fc-gamma receptor I (CD64), sequence (P12314 16-374 limits assumed, form in doubt): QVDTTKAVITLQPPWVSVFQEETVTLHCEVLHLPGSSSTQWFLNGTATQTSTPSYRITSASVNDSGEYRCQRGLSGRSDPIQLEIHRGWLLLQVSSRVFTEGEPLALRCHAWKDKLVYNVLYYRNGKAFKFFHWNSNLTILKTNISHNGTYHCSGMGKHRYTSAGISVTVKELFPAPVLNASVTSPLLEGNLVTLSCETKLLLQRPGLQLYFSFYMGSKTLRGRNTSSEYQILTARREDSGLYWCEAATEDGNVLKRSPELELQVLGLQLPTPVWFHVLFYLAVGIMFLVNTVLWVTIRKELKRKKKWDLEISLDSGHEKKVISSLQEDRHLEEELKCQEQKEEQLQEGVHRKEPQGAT

B1: IgG1 LN01 antibody (antibody, V domains shown)
VH: EVQLVESGPGLVQPWGTLSLTCRVSGDSVSNDNYYWAWIRQTPGRELQVIGTIYYSGTTYYNPSLRNRVTISLDKSVNVVSLRLGSVSAADTAQYYCVRMPSHGFWSTSFSYWYFDLWGRGHFVAVSW
VL: DIQMTQSPSSLSASVGDKVTITCRASQSVTKYLNWYQFKTGQAPRILIYGTYTLLSGVSPRFSGAGSGSLYTLTITNIQPEDFATYYCQQAHSTPWTFGQGTHVAAN
With B1 the “neutralizing activity on TZM-bl cells expressing Fc-gamma receptor I against parental TZM-bl cells” value was 100 fold.
